B1: OR4K15 (parent)
chain: GUUAACGGUCAUAGGCCAUGGAAACUAGGAGCACCAUUUCGCUGCCAGUGAAGAAAUGAACAAAGAAAAUCUGGGCCAGGCAGGCAUCAAAAGAAAUAGUCUUGCGCUCAACCAGAAAGUCUGUAAUCAUUUUAAGGGUA

Variants of: B1
Test: self-cleavage, relative activity (ratio to wild type); higher = more cleavage; in vitro, sequencing; the parent is a self-cleaving ribozyme

In order of rising self-cleavage:
1. A36G A111C  0
2. U37A U108C  0
3. U37C U108C  0.01
4. A36U G106A  0.02
5. U37C C107U  0.02
6. A36U A111G  0.02
7. A36C A111G  0.02
8. U37G A111G  0.03
9. A36G A111G  0.03
10. A36C G104A  0.03
11. U37C U108A  0.04
12. C35U A111U  0.05
13. C35U A111G  0.05
14. U37G U130C  0.05
15. U37C C76U  0.06
16. A36G A78G  0.07
17. A36G A82U  0.1
18. A36G U72C  0.14
19. C35U A110G  0.14
20. U37C C105U  0.15
21. C34U A96C  0.19
22. A36U A78G  0.21
23. U37C U124A  0.21
24. C34U C101A  0.21
25. C35U C71U  0.22
26. U37C A78G  0.26
27. C35U U103C  0.29
28. A36U A82U  0.31
29. A36C A78C  0.32
30. U37C A78U  0.32
31. A36U U72C  0.32
32. U37C A129G  0.32
33. A36U U72A  0.37
34. C34U C105U  0.4
35. U37C U57G  0.5
36. A36U A116U  0.5
37. U37A A68G  0.51
38. A36G A82G  0.53
39. C35U A62G  0.56
40. U37C A52U  0.57
41. C35U U131C  0.58
42. C35U U70C  0.58
43. A36G U131A  0.59
44. U37C U124C  0.62
45. U37C A47U  0.63
46. C34U A125G  0.63
47. C35U A94G  0.64
48. U37C A78C  0.64
49. C35U A86G  0.68
50. A36U A47U  0.69
51. U37G A59G  0.71
52. U37A A90G  0.73
53. C34U A90G  0.74
54. A36G G99A  0.74
55. C34A A82G  0.76
56. C34U A52G  0.85
57. A33U U139A  0.95
58. A36U A116G  0.96
59. C35U U70A  0.97
60. U37C U57A  0.99
61. A36G A92U  0.99
62. A33U U127C  1
63. A36G A116U  1
64. C35U U87C  1
65. A33U U70C  1
66. A33U C77A  1
67. A36G A86G  1.01
68. A36U A86G  1.03
69. A36U A47G  1.03
70. A36C U87C  1.04
71. U37C U102A  1.05
72. U37G A55G  1.07
73. U37C G93U  1.07
74. U37C A59C  1.08
75. A33U G99A  1.09
76. A36C U131C  1.1
77. C35U A69G  1.1
78. A36G A96G  1.13
79. U37C U133C  1.16
80. C35U A91G  1.19
81. C34U A36U  1.19
82. A36U U132C  1.2
83. A33U U124C  1.22
84. C35U A134G  1.23
85. A36C U43C  1.24
86. A36G U122C  1.25
87. A36G U49A  1.26
88. A36G A60G  1.28
89. C34U A60G  1.29
90. A36G A56G  1.3
91. C34A U57C  1.31
92. U38A A47U  1.31
93. U37C A66C  1.34
94. U37C U133A  1.34
95. U37C A118G  1.36
96. U37C A96G  1.36
97. U37C A91G  1.36
98. C35U A92U  1.37
99. U37A A62G  1.37
100. A36U  1.38
101. C34A A60G  1.39
102. A36G  1.39
103. A33U U39A  1.4
104. U37C A52G  1.4
105. U37C U122A  1.4
106. A36G G119C  1.4
107. A36U A89G  1.41
108. A36U A91G  1.42
109. A36U A52G  1.43
110. U37A A64G  1.44
111. A36G U37G  1.45
112. A36C A69C  1.47
113. A36C G41U  1.47
114. U37C A68U  1.5
115. U37G A68G  1.5
116. A36C U127C  1.51
117. A36C  1.52
118. U37C A62G  1.57
119. C35G A59G  1.58
120. A36U U57C  1.58
121. A36G U131C  1.59
122. C35A C61U  1.59
123. U37C A55G  1.59
124. U38A A47G  1.59
125. A36G A135G  1.59
126. A36G A134U  1.6
127. C34U U87C  1.63
128. U37C G137A  1.64
129. A36U A135C  1.65
130. A36G A68U  1.65
131. C34U G44A  1.66
132. A36G U122A  1.66
133. U37G U100C  1.67
134. A36G A67G  1.7
135. U37C A66G  1.73
136. A36U G123A  1.73
137. U37C A95U  1.73
138. A36U A96G  1.74
139. A36U A90G  1.74
140. A36U A91C  1.76
141. A36U U87C  1.76
142. C34U A68G  1.8
143. A36C A91G  1.81
144. U37G A91G  1.82
145. U37A A96U  1.83
146. U37C A96U  1.84
147. A36G A67U  1.85
148. C34U G123A  1.87
149. C34U A117G  1.91
150. U37C A59U  1.91
151. A33U C35U  1.93
152. A36G A62G  1.94
153. U37C A91U  2
154. A36U U49C  2.04
155. A36G A68G  2.06
156. U37A U38G  2.08
157. A36U U120A  2.08
158. A36G U133C  2.18
159. A36C A64G  2.21
160. A36G A89U  2.21
161. A33U U49G  2.25
162. U37A A96G  2.31
163. A36C A51U  2.34
164. U37A A52G  2.37
165. A36G A66U  2.4
166. A36C U87A  2.59
167. A36G A86U  2.91
